Laboratory results reported in PMC4709948.

Target: GST-fused PRAK protein (UniProt Q8IW41)
Assay: SPR; GST-fused PRAK captured by anti-GST antibodies on a CM5 chip; RAGE C-terminal region as analyte, 0 to 40 uM, HBS-EP buffer pH 7.4, 30 uL/min; Biacore X-100

UniProt Q8IW41, sequence (Q8IW41 whole entry, the tested form may be a part): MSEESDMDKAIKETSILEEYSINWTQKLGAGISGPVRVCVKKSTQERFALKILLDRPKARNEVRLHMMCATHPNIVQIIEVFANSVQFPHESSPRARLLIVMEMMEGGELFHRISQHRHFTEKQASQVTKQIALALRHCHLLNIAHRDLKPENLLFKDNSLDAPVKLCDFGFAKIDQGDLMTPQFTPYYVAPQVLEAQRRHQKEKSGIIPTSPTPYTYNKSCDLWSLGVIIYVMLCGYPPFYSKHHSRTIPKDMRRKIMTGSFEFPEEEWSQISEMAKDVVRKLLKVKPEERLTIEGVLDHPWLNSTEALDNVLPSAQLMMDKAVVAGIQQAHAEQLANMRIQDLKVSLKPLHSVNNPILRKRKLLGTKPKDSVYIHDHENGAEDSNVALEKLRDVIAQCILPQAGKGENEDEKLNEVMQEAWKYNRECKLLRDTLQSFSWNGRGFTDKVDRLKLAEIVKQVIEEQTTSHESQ

Kd: 0.509 nM
Substance: RAGE C-terminal region, SPR analyte (domain or fragment)
